Here are results for one molecule from article PMC12107149 (Proceedings of the National Academy of Sciences of the …, 2022).

The target in the test is PU.1 DNA-binding domain (PU.1^DBD) (human, UniProt P17947 168-270). Put plainly: NMR titration.

B1: EWS low-complexity domain (EWS^LCD) (domain or fragment)
chain: ASTDYSTYSQAAAQQGYSAYTAQPTQGYAQTTQAYGQQSYGTYGQPTDVSYTQAQTTATYGQTAYATSYGQPPTGYTTPTAPQAYSQPVQGYGTGAYDTTTATVTTTQASYAAQSAYGTQPAYPAYGQQPAATAPTRPQDGNKPTETSQPQSSTGGYNQPSLGYGQSNYSYPQVPGSYPMQPVTAPPSYPPTSYSSTQPTSYDQSSYSQQNTYGQPSSYGQQSSYGQQSSYGQQPPTSYPPQTGSYSQAPSQYSQQSSSYGQQ
With B1, the binding result is reported as “binds”.
